Assay results as given in patent publication US11278600B2, “Human alpha-galactosidase variants” (Codexis, Inc., priority 2014, dated 2022).

B1: 630 (protein)
chain: LDNGLARTPTMGWLHWERFMCNLDCQEEPDSCISEKLFMEMAERMVTEGWKDAGYEYLCIDDCWMAPQRDSEGRLQADPQRFPHGIRQLANHVHSKGLKLGIYADVGNKTCAGFPGSFGYYDIDAQTFADWGVDLLKFDGCYCDSLENLADGYKHMSLALNRTGRPIVYSCEWPLYMWPFQKPNYTEIRQYCNHWRNFADIDDSWASIKSILDWTSRNQERIVDVAGPGGWNDPDMLVIGNFGLSWDQQVTQMALWAIWAAPLFMSNDLRAISPQAKALLQDKDVIAINQDPLGKQGYQLRKGDNFEVWERPLSGDAWAVAIINRQEIGGPRSYTIPVASLGKGVACNPACFITQLLPVKRQLGFYNWTSRLKSHINPTGTVLLQLENTHQMSLKDLL
modifications: Synthetic Polypeptide sequence of Variant No. 630 of mature Human GLA
B2: 632 (protein)
chain: LDNGLARTPTMGWLHWERFMCNLDCQEEPDSCISEKLFMEMAERMVNEGWKDAGYEYLCIDDCWMAPQRDSEGRLQADPQRFPHGIRQLANHVHSKGLKLGIYADVGNKTCAGFPGSFGYYDIDAQTFADWGVDLLKFDGCYCDSLENLADGYKHMSLALNRTGRPIVYSCEWPLYMWPFQKPNYTEIRQYCNHWRNFADIDDSWASIKSILDWTSRNQERIVDVAGPGGWNDPDMLVIGNFGLSWDQQVTQMALWAIMAAPLFMSNDLRAISPQAKALLQDKDVIAINQDPLGKQGYQLRKGDNFEVWERPLSGDAWAVAIINRQEIGGPRSYTIPVASLGKGVACNPACFITQLLPVKRQLGFYNWTSRLKSHINPTGTVLLQLENTMQTSLKDLL
modifications: Synthetic Polypeptide sequence of Variant No. 632 of mature Human GLA
B3: 662 (protein)
chain: LDNGLARTPTMGWLHWERFMCNLDCQEEPDSCISEKLFMEMAERMVTEGWKDAGYEYLCIDDCWMAPQRDSEGRLQADPQRFPHGIRQLANHVHSKGLKLGIYADVGNKTCAGFPGSFGYYDIDAQTFADWGVDLLKFDGCYCDSLENLADGYKHMSLALNRTGRPIVYSCEWPLYMWPFQKPNYTEIRQYCNHWRNFADIDDSWASIKSILDWTSRNQERIVDVAGPGGWNDPDMLIIGNFGLSWDQQVTQMALWAIMAAPLFMSNDLRAISPQAKALLQDKDVIAINQDPLGKQGYQLRKGDNFEVWERPLSGDAWAVAIINRQEIGGPRSYTIPVASLGKGVACNPACFITQLLPVKRQLGFYNWTSRLKSHINPTGTVLLQLENTMQTSLKDLL
modifications: Synthetic Polypeptide sequence of Variant No. 662 of mature Human GLA
B4: 663 (protein)
chain: LDNGLARTPTMGWLHWERFMCNLDCQEEPDSCISEKLFMEMADRMVTEGWKDAGYEYLCIDDCWMAPQRDSEGRLQADPQRFPHGIRQLANHVHSKGLKLGIYADVGNKTCAGFPGSFGYYDIDAQTFADWGVDLLKFDGCYCDSLENLADGYKHMSLALNRTGRPIVYSCEWPLYMWPFQKPNYTEIRQYCNHWRNFADIDDSWASIKSILDWTSRNQERIVDVAGPGGWNDPDMLVIGNFGLSWDQQVTQMALWAIMAGPLFMSNDLRAISPQAKALLQDKDVIAINQDPLGKQGYQLRKGDNFEVWERPLSGDAWAVAIINRQEIGGPRSYTIPVASLGKGVACNPACFITQLLPVKRQLGFYNATSRLKSHINPTGTVLLQLENTMQTSLKDLL
modifications: Synthetic Polypeptide sequence of Variant No. 663 of mature Human GLA
B5: 660 (protein)
chain: LDNGLARTPTMGWLHWERFMCNLDCQEEPDSCISEKLFEEMAERMVTEGWKDAGYEYLCIDDCWMAPQRDSEGRLQADPQRFPHGIRQLANHVHSKGLKLGIYADVGNKTCAGFPGSFGYYDIDAQTFADWGVDLLKFDGCYCDSLENLADGYKHMSLALNRTGRPIVYSCEWPLYMWPFQKPNYTEIRQYCNHWRNFADIDDSWASIKSILDWTSRNQERIVDVAGPGGWNDPDMLVIGNFGLSWDQQVTQMALWAIMAGPLFMSNDLRAISPQAKALLQDKDVIAINQDPLGKQGYQLRKGDLFEVWERPLSGDAWAVAIINRQEIGGPRSYTIPVASLGKGVACNPACFITQLLPVKRQLGFYNWTSRLKSHINPTGTVLLQLENTMQTSLKDLL
modifications: Synthetic Polypeptide sequence of Variant No. 660 of mature Human GLA
B6: 631 (protein)
chain: LDNGLARTPTMGWLHWERFMCNLDCQEEPDSCISEKLFMEMAERMVTEGWKDAGYEYLCIDDCWMAPQRDSEGRLQADPQRFPHGIRQLANHVHSKGLKLGIYADVGNKTCAGFPGSFGYYDIDAQTFADWGVDLLKFDGCYCDSLENLADGYKHMSLALNRTGRPIVYSCEWPLYMWPFQKPNYTEIRQYCNHWRNFADIDDSWASIKSILDWTSRNQERIVDVAGPGGWNDPDMLVIGNFGLSWDQQVTQMALWAIMAAPLFMSNDLRAISPQAKALLQDKDVIAINQDPLGKQGYQLRKGDNFEVWERPLSGDAWAVAIINRQEIGGPRSYTIPVASLGKGVACNPACFITQLLPVKRQLGFYNWTSRLKSHINPTGTVLLQLENTQQMSLKDLL
modifications: Synthetic Polypeptide sequence of Variant No. 631 of mature Human GLA
B7: 664 (protein)
chain: LDNGLARTPPMGWLHWERFMCNLDCQEEPDSCISEKLFMEMAERMVTEGWKDAGYEYLCIDDCWMAPQRDSEGRLQADPQRFPHGIRQLANHVHSKGLKLGIYADVGNKTCAGFPGSFGYYDIDAQTFADWGVDLLKFDGCYCDSLENLADGYKHMSLALNRTGRPIVYSCEWPLYMWPFQKPNYTEIRQYCNHWRNFADIDDSWASIKSILDWTSRNQERIVDVAGPGGWNDPDMLVIGNFGLSWDQQVTHRELWAIMAGPLFMSNDLRAISPQAKALLQDKDVIAINQDPLGKQGYQLRKGDNFEVWERPLSGDAWAVAIINRQEIGGPRSYTIPVASLGKGVACNPACFITQLLPVKRQLGFYNWTSRLKSHINPTGTVLLQLENTMQTSLKDLL
modifications: Synthetic Polypeptide sequence of Variant No. 664 of mature Human GLA
B8: 661 (protein)
chain: LDNGLARTPTMGWLHWERFMCNLDCQEEPDSCISEKLFMEMAERMVTEGWKDAGYEYLCIDDCWMAPQRDSEGRLQADPQRFPHGIRQLANHVHSKGLKLGIYADVGNKTCAGFPGSFGYYDIDAQTFADWGVDLLKFDGCYCDSLENLADGYKHMSLALNRTGRPIVYSCEWPLYMWPFQKPNYTEIRQYCNHCRNFADIDDSWASIKSILDWTSRNQERIVDVAGPGGWNDPDMLVIGNFGLSWDQQVTQMALWAIMAAPLFMSNDLRAISPQAKALLQDKDVIAINQDPLGKQGYQLRKGDNFEVWERPLSGDAWAVAIINRQEIGGPRSYTIPVASLGKGVACNPACFITQLLPVKRQLGFYNWTSRLKSHINPTGTVLLQLENTMQTSLKDLL
modifications: Synthetic Polypeptide sequence of Variant No. 661 of mature Human GLA

How the values were obtained:
Format in all cases: biochemical
[1] = HTP-analysis of yeast culture supernatants, no challenge (MUGal hydrolysis)
Procedure, shortened: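 GLA variants were expressed in INVSc1 yeast grown in SD-Ura broth with glucose at 30° C., and culture supernatants were collected after 66-84 h. Supernatant was mixed with McIlvaine buffer pH 4.8 and MUGal (2 mM stock) in 50 mM citrate, 200 mM KCl, pH 4.6, incubated at 37° C. for 30-180 minutes, then quenched with sodium carbonate.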

[2] = HTP-analysis of supernatants pretreated with acid (MUGal hydrolysis); details: for Relative Activity of GLA Variants After Challenge at pH 3.3: activity of the variant/activity of Rd3BB (SEQ ID NO: 13), yeast supernatant; for Relative Activity of GLA Variants After Challenge at pH 3.5: activity of the variant/activity of Rd7BB (SEQ ID NO: 44)
Procedure, shortened: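 MUGal hydrolysis was tracked by fluorescence (Ex 355 nm, Em 448 nm) after a 30-180 min reaction at 37° C. in pH 4.8 McIlvaine/citrate buffer, stopped with 1 M sodium carbonate. Beforehand, yeast (INVSc1) culture supernatants carrying GLA variants were held 1-3 h at 37° C. in acidic McIlvaine buffer, pH 3.3-4.3.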

[3] = HTP-analysis of supernatants pretreated with base (MUGal hydrolysis); details: for Relative Activity of GLA Variants After Challenge at pH 9.7: activity of the variant/activity of Rd3BB (SEQ ID NO: 13), yeast supernatant; for Relative Activity of GLA Variants After Challenge at pH 7.5: activity of the variant/activity of Rd7BB (SEQ ID NO: 44)
Procedure, shortened: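 Supernatants from INVSc1 yeast expressing GLA variants (SD-Ura, 66-84 h, 30° C) were mixed with McIlvaine buffer pH 7.0-8.2 or 200 mM sodium bicarbonate pH 9.1-9.7 and held 1-18 h at 37° C. Residual activity was then measured on MUGal at pH 4.8/4.3, 37° C, 30-180 min, by fluorescence (Ex 355/Em 448 nm).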

[4] = activity of the variant/activity of Rd3BB (SEQ ID NO: 13), yeast supernatant
[5] = activity of the variant/activity of Rd7BB (SEQ ID NO: 44)

Molecule	Relative Activity of GLA Variants After No Challenge (NC) [1, 4]	Relative Activity of GLA Variants After Challenge at pH 3.3 [2]	Relative Activity of GLA Variants After Challenge at pH 9.7 [3]	Relative Activity of GLA Variants After No Challenge (NC) [1, 5]	Relative Activity of GLA Variants After Challenge at pH 3.5 [2]	Relative Activity of GLA Variants After Challenge at pH 7.5 [3]
B1	+ (+ = 1.5 to 5 relative activity over Rd3BB (SEQ ID NO: 13))	− (− = <1.5 relative activity to Rd3BB (SEQ ID NO: 13))	++ (++ = >5 to 10 relative activity over Rd3BB (SEQ ID NO: 13))	–	–	–
B2	+ (+ = 1.5 to 5 relative activity over Rd3BB (SEQ ID NO: 13))	++ (++ = >5 to 10 relative activity over Rd3BB (SEQ ID NO: 13))	++ (++ = >5 to 10 relative activity over Rd3BB (SEQ ID NO: 13))	–	–	–
B3	–	–	–	+ (>0.5 to 1.5 relative activity over Rd7BB (SEQ ID NO: 44))	+ (>0.5 to 1.5 relative activity over Rd7BB (SEQ ID NO: 44))	+ (>0.5 to 1.5 relative activity over Rd7BB (SEQ ID NO: 44))
B4	–	–	–	+ (>0.5 to 1.5 relative activity over Rd7BB (SEQ ID NO: 44))	+ (>0.5 to 1.5 relative activity over Rd7BB (SEQ ID NO: 44))	− (<0.5 relative activity to Rd7BB (SEQ ID NO: 44))
B5	–	–	–	+ (>0.5 to 1.5 relative activity over Rd7BB (SEQ ID NO: 44))	+ (>0.5 to 1.5 relative activity over Rd7BB (SEQ ID NO: 44))	− (<0.5 relative activity to Rd7BB (SEQ ID NO: 44))
B6	+ (+ = 1.5 to 5 relative activity over Rd3BB (SEQ ID NO: 13))	+ (+ = 1.5 to 5 relative activity over Rd3BB (SEQ ID NO: 13))	++ (++ = >5 to 10 relative activity over Rd3BB (SEQ ID NO: 13))	–	–	–
B7	–	–	–	− (<0.5 relative activity to Rd7BB (SEQ ID NO: 44))	− (<0.5 relative activity to Rd7BB (SEQ ID NO: 44))	− (<0.5 relative activity to Rd7BB (SEQ ID NO: 44))
B8	–	–	–	− (<0.5 relative activity to Rd7BB (SEQ ID NO: 44))	− (<0.5 relative activity to Rd7BB (SEQ ID NO: 44))	− (<0.5 relative activity to Rd7BB (SEQ ID NO: 44))
